The target of the assay is His-tagged Dock180 (UniProt Q14185). Put plainly: cell-based or functional assay.

ELMO1-GFP, sequence (Q8BPU7 whole entry): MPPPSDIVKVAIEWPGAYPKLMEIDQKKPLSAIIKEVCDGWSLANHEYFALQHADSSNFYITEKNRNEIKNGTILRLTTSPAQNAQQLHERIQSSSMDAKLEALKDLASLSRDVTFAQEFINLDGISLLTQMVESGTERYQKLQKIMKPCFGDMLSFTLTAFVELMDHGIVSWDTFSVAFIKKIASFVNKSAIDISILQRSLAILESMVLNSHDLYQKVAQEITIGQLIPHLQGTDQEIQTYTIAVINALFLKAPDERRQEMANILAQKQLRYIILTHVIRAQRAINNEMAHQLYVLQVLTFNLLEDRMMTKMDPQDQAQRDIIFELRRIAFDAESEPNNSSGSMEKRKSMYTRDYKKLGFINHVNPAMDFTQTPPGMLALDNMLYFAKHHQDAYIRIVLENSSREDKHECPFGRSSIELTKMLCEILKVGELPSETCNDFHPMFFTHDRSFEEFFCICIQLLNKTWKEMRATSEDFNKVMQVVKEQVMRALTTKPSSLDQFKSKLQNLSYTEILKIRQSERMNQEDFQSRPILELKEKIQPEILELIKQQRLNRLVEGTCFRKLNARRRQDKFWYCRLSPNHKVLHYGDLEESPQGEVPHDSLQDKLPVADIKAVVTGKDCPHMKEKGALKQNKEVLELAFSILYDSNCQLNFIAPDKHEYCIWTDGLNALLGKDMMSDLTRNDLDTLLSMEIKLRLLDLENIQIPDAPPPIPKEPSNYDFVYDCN

ELMO1-GFP (from UniProt Q8BPU7 1-727): the bead uptake in the LR73 phagocytosis assay (GFP positive cells with engulfed particles) stood at 2 fold.

For the origin of these results see patent publication US20030028904A1.
